From patent publication US20250237641A1 (priority 2021, published 2025)

B1: IFN-γ: cytokine interferon gamma, used to induce APOL1 expression (protein, UniProt P01579 24-161, looked up)
Interferon gamma: QDPYVKEAENLKKYFNAGHSDVADNGTLFLGILKNWKEESDRKIMQSQIVSFYFKLFKNFKDDQSIQKSVETIKEDMNVKFFNSNKKKRDDFEKLTNYSVTDLNVQRKAIHELIQVMAELSPAAKTGKRKRSQMLFRG

What was measured:
SARS-CoV-2 = experiment: Plaque assay of supernatants from SARS-CoV-2 infected kidney organoids treated with remdesivir; format: cell-based; conditions: 2 μM remdesivir immediately after infection with SARS-CoV-2 or SARS-CoV-2-mNG; vs untreated organoids
Method: Mean±SEM of three independent experiments. Paired t-test, **p<0.01.
To investigate the efficacy of remdesivir, kidney organoids were infected with SARS-CoV-2 or SARS-CoV-2-mNG, and then treated with a 2 μM dose of remdesivir immediately after infection (FIG. 5A).

COVID-19 patients = conditions: cited from earlier work
kidney organoids = conditions: short term, at the efficacious dose (2 μM)
[1] = test system: kidney organoid podocytes; experiment: Time-lapse imaging of GFP-PODXL kidney organoids under prolonged treatment (podocyte integrity, organoid size); format: cell-based, human
Method: It was determined whether podocytes are damaged by prolonged IFN-γ treatment. As shown at FIG. 24A, an example time course for prolonged IFN-γ treatment involves regular imaging of organoids during treatment of mature organoids with IFN-γ prior to fixation. […] Further, podocyte junctional tracks appear intact with 7d IFN-γ treatment (results from confocal immunofluorescence microscopy of control versus 7d IFN-γ treatment; markers: ZO-1, Synaptopodin, ZO-1+Synaptopodin, APOL1, and DAPI). Based on these observations, it was concluded that podocytes appear largely undamaged by prolonged IFN-γ treatment.

APOL1 expression = APOL1 expression in kidney organoids on agonist (IFN-γ) treatment, immunofluorescence; format: cell-based, human
Method: Experiments were performed to determine APOL1 localization in normal human kidney and stimulation in kidney organoids.

[2] = test system: kidney organoid endothelial networks; experiment: Endothelial networks and tubular structures of kidney organoids under prolonged IFN-γ treatment; format: cell-based, human; conditions: prolonged (7d) treatment
Excerpt: As such, it was next determined whether JAK ½ inhibition prevents IFN-γ-induced loss of endothelial networks and disorganization of tubular structures. […] As a result, it was concluded that JAK ½ inhibition prevents IFN-γ-induced loss of endothelial networks and disorganization of tubular structures.

[3] = prolonged treatment of mature organoids

| Molecule | reduced replicated virus in supernatants (plaque assay) (SARS-CoV-2) | tolerability (COVID-19 patients; AKI and CKD patients) | risk of developing AKI (COVID-19 patients; remdesivir-treated patients) | safety in kidney cells (kidney organoids) | organoid size [1, 3] | APOL1 agonist screen result (APOL1 expression; 24-hour screen) | saturating dose for APOL1 expression (APOL1 expression; 24 hr, fluorescent intensity of APOL1 in organoids) [ng/mL] | APOL1 expression on titration (APOL1 expression; IFN-γ titration) | effect on endothelial networks and tubular structures [2] | podocyte junctional tracks ([1]; 7d treatment, ZO-1, Synaptopodin staining) | loss of GFP-PODXL [1, 3] |
| --- | --- | --- | --- | --- | --- | --- | --- | --- | --- | --- | --- |
| CCC(CC)COC(=O)[C@H](C)N[P@](=O)(OC[C@H]1O[C@@](C#N)(c2ccc3c(N)ncnn23)[C@H](O)[C@@H]1O)Oc1ccccc1 [remdesivir] | 71.4%±18% | tolerated well | increase chances of developing AKI | supports short term safety |  |  |  |  |  |  |  |
| tunicamycin [reference compound] |  |  |  |  | shrink in size |  |  |  |  |  |  |
| B1 |  |  |  |  | no significant change | strong agonist for APOL1 expression | 100 | dose-responsive activation of APOL1 expression | pronounced loss of endothelial networks and tubular structures | appear intact | does not result in enhanced loss of GFP-PODXL |
